Reference: PMC9258321, “Structure-guided design of CPPC-paired disulfide-rich peptide libraries for ligand and drug discovery†” (Chemical Science, 2022)
Ends that are not written are not given here.

Molecular target: T1, Kelch domain of Keap1
T1 construct: Keap1, Kelch domain; The Kelch domain is named for the phage selection; the SPR sentences say only 'Keap1'
Experiment: SPR; Keap1 with oxidized peptides, concentration-dependent
Conditions: both partners purified

Kd: 153 nM
B1: drp5-a (peptide)
chain: CPPCHGRPTCDEETGECWELLTCPPC
modifications: disulfide (positions not given here); also: oxidized (disulfides), pairing of this isomer not given here
